Results as given in patent publication US6436691B1, “Chemical compounds” (Zeneca Limited, priority 1995, dated 2002).
Residue numbers refer to the chain shown, from its start. In names and notes the source's numbering stands.

B1: D253R HCPB: mature HCPB with aspartate 253 changed to arginine, C-terminal (His)6-c-myc tag (protein, UniProt P15086 111-417, looked up, variant D253R)
Carboxypeptidase B: ATGHSYEKYNKWETIEAWTQQVATENPALISRSVIGTTFEGRAIYLLKVGKAGQNKPAIFMDCGFHAREWISPAFCQWFVREAVRTYGREIQVTELLDKLDFYVLPVLNIDGYIYTWTKSRFWRKTRSTHTGSSCIGTDPNRNFDAGWCEIGASRNPCDETYCGPAAESEKETKALADFIRNKLSSIKAYLTIHSYSQMMIYPYSYAYKLGENNAELNALAKATVKELASLHGTKYTYGPGATTIYPAAGGSRDWAYDQGIRYSFTFELRDTGRYGFLLPESQIRATCEETFLAIKYVASYVLEHLY
modifications: (His)6-c-myc tag
B2: [I245H, D253K]: HCPB mutant with I245H and D253K (protein, UniProt P15086 111-417, looked up, variant I245H D253K)
Carboxypeptidase B: B1 Carboxypeptidase B with I245H, R253K
B3: [G251N,D253R]: HCPB mutant with G251N and D253R, (His)6-c-myc tag (protein, UniProt P15086 111-417, looked up, variant G251N D253R)
Carboxypeptidase B: B1 Carboxypeptidase B with G251N
modifications: (His)6-c-myc tag
B4: [G251Q, D253K]: HCPB mutant with G251Q and D253K (protein, UniProt P15086 111-417, looked up, variant G251Q D253K)
Carboxypeptidase B: B1 Carboxypeptidase B with G251Q, R253K
B5: [A248S, G251S, D253K]: HCPB mutant with A248S, G251S and D253K (protein, UniProt P15086 111-417, looked up, variant A248S G251S D253K)
Carboxypeptidase B: B1 Carboxypeptidase B with A248S, G251S, R253K
B6: [G251N,D253K]: HCPB mutant with G251N and D253K, (His)6-c-myc tag (protein, UniProt P15086 111-417, looked up, variant G251N D253K)
Carboxypeptidase B: B1 Carboxypeptidase B with G251N, R253K
modifications: (His)6-c-myc tag
B7: [G251V, D253K]: HCPB mutant with G251V and D253K (protein, UniProt P15086 111-417, looked up, variant G251V D253K)
Carboxypeptidase B: B1 Carboxypeptidase B with G251V, R253K
B8: [G251K, D253R]: HCPB mutant with G251K and D253R (protein, UniProt P15086 111-417, looked up, variant G251K D253R)
Carboxypeptidase B: B1 Carboxypeptidase B with G251K
B9: [A248H, D253K]: HCPB mutant with A248H and D253K (protein, UniProt P15086 111-417, looked up, variant A248H D253K)
Carboxypeptidase B: B1 Carboxypeptidase B with A248H, R253K
B10: [G251T,D253R]HCPB: HCPB mutant with G251T and D253R, (His)6-c-myc tag (protein, UniProt P15086 111-417, looked up, variant G251T D253R)
Carboxypeptidase B: B1 Carboxypeptidase B with G251T
modifications: (His)6-c-myc tag

Tests used:
Format in all cases: biochemical
[1] = Conversion of Hipp-Glu to hippuric acid by mutant and native human CPB, HPLC assay (Example 6); conditions: 5 hr at 37° C.; 4 μg enzyme; 0.5 mM substrate
Method: (§1) Purified mutants of human CPB (D253K and D253R; Examples 1-3) and native human CPB, produced as described in Reference Example 12, were assayed for their ability to convert either hippuryl-L-aspartic acid (Hipp-Asp—Reference Example 2), hippuryl-L-glutamic acid (Hipp-Glu—Reference Example 1) or hippuryl-L-arginine (Sigma Chemical Company—cat no. H6625) to hippuric acid using a HPLC based assay.
(§2) The reaction mixture (250 μl) contained 4 μg human CPB (native or mutant) and 0.5 mM Hipp-Asp or Hipp-Glu in 0.025 M Tris-HCL, pH 7.5. Samples were incubated for 5 hr at 37° C. The reactions were terminated by the addition of 250 μl of 80% methanol, 20% distilled water, 0.2% trifluoro acetic acid and the amount of hippuric acid generated was quantified by HPLC.
(§3) HPLC analysis was carried out using a Hewlett Packard 1090 Series 11 (with diode array) HPLC system. Samples (50 μl) were injected onto a Hichrom Hi-RPB column (25 cm) and separated using a mobile phase of 40% methanol, 60% distilled water, 0.1% trifluoro acetic acid at a flow rate of 1 ml/min. The amount of product (hippuric acid) produced was determined from calibration curves generated with known amounts of hippuric acid (Sigma-H6375). The results are shown in Table 1 and are expressed as the percentage conversion of substrate into product in 5 hr at 37° C. with 4 μg enzyme.

[2] = Conversion of Hipp-Arg to hippuric acid by mutant and native human CPB, HPLC assay (Example 6); conditions: 5 hr at 37° C.; 4 μg enzyme
Method: as §1, §2, §3

[3] = Conversion of prodrug of Example 24 to drug of Example 25 by HCPB mutants, HPLC (Example 20); conditions: enzyme 15 μg/ml; 0.5 mM prodrug of Example 24; 5 minutes at 37° C.
Method: The reaction was stopped by adding MeCN (500 μl) plus 0.2% Trifluoroacetic acid. The amount of drug produced was then quantified by HPLC.
HPLC separation was carried out as described in Example 6 except that a mobile phase of 70% MeCN, 30% distilled water and 0.1% trifluoroacetic acid was used to achieve separation of prodrug (retention time 3.8 minutes) and drug (retention time 4.9 minutes) and the compounds were detected at 260 nm. The amount of drug produced was quantified from calibration curves generated with known amounts of drug.
The amount of [Q54R,D145A,D253K]HCPB and [G251T,D253K]HCPB mutants was reduced to 0.75 μg in the reaction mixture.

[4] = Conversion of Hipp-Asp to hippuric acid by mutant and native human CPB, HPLC assay (Example 6); conditions: 5 hr at 37° C.; 4 μg enzyme; 0.5 mM substrate
Method: as §1, §2, §3

[5] = Activity against Hipp-Asp in crude E. coli periplasmic shockate relative to D253K or D253R HCPB (Example 16)
From the text: A number of other mutant HCPBs have been constructed in a similar manner to the methods described in Reference Examples 7 and 8, and Examples 12, 13, 14 and 15. In each case oligos were constructed to introduce specific changes in the gene sequence by methods similar to those described above. In some cases additional mutations were identified upon complete sequencing of the mutated gene, and these were presumably introduced during the PCR reactions. Mutants with enzyme activity against substrate analogues (see Example 18 below) have been identified, and examples of these are given in Table 4 below. […] This material is subsequently referred to as periplasmic shockate or shockate and is prepared by the following procedure.
1. A single colony was used to inoculate 75 ml of L-broth nutrient media containing 10 μg/ml tetracycline and arabinose to a final concentration of 0.01% (w/v). Incubation was performed at 20° C. with shaking (250 rpm) for about 60 hours.
2. The cells were then harvested by centrifugation at 4° C.
3. The cell pellet was re-suspended in 300 micro-liters of 20% sucrose (w/v) containing 1 mM EDTA in 200 mM Tris-HCl at pH7.5, and incubated at room-temperature for 15 minutes.
4. Periplasmic shockate was generated by the addition of 450 micro-liters of distilled water, and a further incubation at room-temperature for 15 minutes.
5. Cellular remains were removed by centrifugation, and the supernatant assayed for enzyme activity as soon as possible after preparation and kept at 4° C. prior to assay.
(§4) The activity of [G251T,D253K]HCPB was measured using the assay conditions described in Example 17 but using either 50 μl of a neat or 1 in 10 or 1 in 100 dilution of [G251T,D253K]HCPB crude E.coli periplasmic shockate (shockate) sample in place of purified enzyme. Samples were incubated for 24 h at 37° C. […] For other HCPB mutants, the reaction volume was 250 μl and contained 125 μl of neat shockate or 1 in 50 dilution of shockate. The shockate samples were prepared as described in Example 16. The amount of Hippuric acid produced in 24 h was quantified by HPLC as described in Example 17 and the results are shown in Table 6 and are expressed as the percentage conversion of substrate into product in 24 h at 37° C.

[6] = Conversion of Hipp-Arg by purified HCPB mutants, 30 minutes, HPLC (Example 17); conditions: 0.5 mM substrate, 30 minutes at 37° C.
Method: (§5) Purified mutants of human CPB (D253K; [G251K,D253R]; [G251N,D253R]; [I201S,D253K]; [G251N,D253K]; [Q54R,D145A,D253K]; [G251T,D253K]; [G251S,D253K]; [A248N,G251N,D253K]; [A248S,G251N,D253K] and [S205N,G251N,D253K]—described in Examples 3, 12, 13, 16, 28, 30, 31, 32 and 33) were assayed for their ability to convert hippuryl-L-glutamic acid (Hipp-Glu—Reference Example 1), hippuryl-L-aspartic acid (Hipp-Asp—Reference Example 2) and hippuryl-L-arginine (Sigma Chemical Company—cat no. H6625) to hippuric acid using a HPLC based assay similar to that described in Example 6.
(§6) Samples were incubated for 30 minutes at 37° C. The reactions were terminated by the addition of 500 μl of 40% methanol, 60% distilled water, 0.2% trifluoro acetic acid and the amount of hippuric acid generated was quantitated by HPLC as described in Example 6 but using a mobile phase of 20% methanol, 80% 50 mM phosphate buffer, pH 6.5. Hippuric acid was detected at 230 nm. The results are shown in Table 5 and are expressed as the percentage conversion of substrate into product in 30 minutes at 37° C.

[7] = Conversion of Hipp-Glu by purified HCPB mutants, 30 minutes, HPLC (Example 17); conditions: 0.5 mM substrate, 30 minutes at 37° C.
Method: as §5, §6

[8] = Conversion of Hipp-Asp by purified HCPB mutants, 30 minutes, HPLC (Example 17); conditions: 0.5 mM substrate, 30 minutes at 37° C.
Method: as §5, §6

[9] = Km and kcat of HCPB mutants with Hipp-Glu (Example 7); conditions: Hipp-Glu 0.25-8.0 mM; pH 7.5; 5 h at 37° C.
Method: (§7) Hipp-Glu and Hipp-Asp were diluted in range 0.25-8.0 mM and 0.25-5.0 mM respectively in 0.025 M Tris-HCL buffer, pH 7.5. Where necessary substrate samples were adjusted to pH 7.5 with 1M NaOH.
(§8) Samples were incubated for 5 h at 37° C. Reactions were terminated by the addition of 500 μl methanol/distilled water (80/20) containing 0.2% TFA. The amount of hippuric acid produced was quantified by HPLC as described in Example 6.
(§9) Km and Vmax values were calculated using the ENZFITTER software programme (Biosoft, Perkin Elmer).

[10] = Km and kcat of HCPB mutants with Hipp-Asp (Example 7); conditions: Hipp-Asp 0.25-5.0 mM; pH 7.5; 5 h at 37° C.
Method: as §7, §8, §9

[11] = Conversion of Hipp-Glu by periplasmic shockate of HCPB mutants, 24 h (Example 18); conditions: shockate concentration in reaction mixture 50 %; 24 h at 37° C.
Method: as §4

[12] = Conversion of Hipp-Asp by periplasmic shockate of HCPB mutants, 24 h (Example 18); conditions: shockate concentration in reaction mixture 50 %; 24 h at 37° C.
Method: as §4

Molecule | Prodrug Hydrolysis (%) [3] | Hipp-Asp, activity relative to D253K HCPB or D253R HCPB [5] | Hipp-Arg (% conversion) ([6]; enzyme 2.5 μg/ml) | Hipp-Arg (% conversion) ([6]; enzyme 25 μg/ml) | Hipp-Glu (% conversion) ([7]; enzyme 2.5 μg/ml) | Hipp-Glu (% conversion) ([7]; enzyme 25 μg/ml) | Hipp-Asp (% conversion) ([8]; enzyme 2.5 μg/ml) | Hipp-Asp (% conversion) ([8]; enzyme 25 μg/ml) | other results
B1 | 18.3% | – | – | – | – | – | – | – | Hipp-Glu (% conversion to Hippuric acid) [1]: 52%; Hipp-Arg (% conversion to Hippuric acid) [2]: 3%; Hipp-Asp (% conversion to Hippuric acid) [4]: 72%
B2 | – | NAD (No activity detected) | – | – | – | – | – | – | –
B3 | 66.7% | – | 0% | 0% | 8.8% | 57% | 1.4% | 9.4% | –
B4 | – | NAD (No activity detected) | – | – | – | – | – | – | –
B5 | – | NAD (No activity detected) | – | – | – | – | – | – | –
B6 | 75.9% | – | 0.4% | 1.8% | 62.4% | 100% | 1.9% | 8.3% | Km [9]: 2300 µM; kcat, Hipp-Glu [9]: 24 s⁻¹
B7 | – | NAD (No activity detected) | – | – | – | – | – | – | –
B8 | 16.2% | NAD (No activity detected) | 0% | 0% | 3.2% | 5.5% | 0.2% | 0.2% | –
B9 | – | NAD (No activity detected) | – | – | – | – | – | – | –
B10 | – | – | – | 0% | – | 96% | – | 29% | Hipp-Arg (% conversion) ([6]; enzyme 1 μg/ml): 0%; Hipp-Glu (% conversion) ([7]; enzyme 1 μg/ml): 16.2%; Km [10]: 1700 µM; kcat, Hipp-Asp [10]: 0.7 s⁻¹; Hipp-Glu (% conversion) [11]: 65.4%; Hipp-Asp (% conversion) [12]: 14.6%; Hipp-Asp (% conversion) ([8]; enzyme 1 μg/ml): 1.2%; Km [9]: 1600 µM; kcat, Hipp-Glu [9]: 7.8 s⁻¹
